From US20240384250A1, “FIBROBLAST GROWTH FACTOR 23 MODULATING COMPOUNDS” (THE UAB RESEARCH FOUNDATION, priority 2021, published 2024)

Target: T1, FGFR4 (Homo sapiens, UniProt P22455)
T1 construct: Fc-FGFR4 protein (human ectodomain) was immobilized; purchased R&D Systems 685FR050
T1 sequence (P22455 22-369 limits assumed): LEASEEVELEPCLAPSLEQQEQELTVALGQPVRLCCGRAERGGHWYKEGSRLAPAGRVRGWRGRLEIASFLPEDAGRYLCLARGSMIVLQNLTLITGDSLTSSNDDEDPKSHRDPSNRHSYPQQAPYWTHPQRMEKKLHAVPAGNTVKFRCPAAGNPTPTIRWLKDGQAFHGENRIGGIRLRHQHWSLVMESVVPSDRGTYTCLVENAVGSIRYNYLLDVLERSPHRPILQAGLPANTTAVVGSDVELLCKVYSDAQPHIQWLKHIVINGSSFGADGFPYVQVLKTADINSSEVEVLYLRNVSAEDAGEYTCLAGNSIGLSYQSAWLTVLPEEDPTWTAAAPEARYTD
Assay: Surface plasmon resonance, FGFR4 ectodomain immobilized on chip
Assay type: binding
Conditions: SPR
Method: For the direct quantitative analysis of label-free molecular interactions in real time, surface plasmon resonance studies were conducted using BIAcore T200 and T200 evaluation software (28975001, Cytiva). Sensor SA (BR100398) and CMS chips (BR100399) were from Cytiva. For the preparation of heparin chips, heparin (2 mg) and amine-PEG3-Biotin (2 mg, 21347, Pierce) were dissolved in 200 μl of H2O and 10 mg of NaCNBH3 was added. The reaction mixture was heated at 70° C. for 24 hours; an additional 10 mg of NaCNBH3 was added; and the reaction was heated at 70° C. for another 24 hours. After cooling to room temperature, the mixture was desalted with the spin column (3000 MWCO). Biotinylated heparin was collected, freeze dried, and used for chip preparation. Biotinylated heparin was immobilized to streptavidin chips according to the manufacturer's protocol. In brief, 20 μl of biotinylated heparin solution (0.1 mg/ml) in HBS-P running buffer (0.01 M N-2-hydroxyethylpiperazine-N′-2-ethanesulfonic acid, 0.15 M NaCl, 0.005% surfactant P20 [pH7.4]; BR100368, Cytiva) was injected over flow cell 2 of the streptavidin chip at a flow rate of 10 μl/min. The successful immobilization of heparin was confirmed by the observation of an approximately 200-resonance unit increase in the sensor chip. The control flow cell (flow cell 1) was prepared by 1-minute injection with saturated biotin. For the preparation of FGFR4 chips, Fc-FGFR4 protein (human ectodomain) was immobilized on research grade CMS chips according to the standard amine coupling protocol. Briefly, carboxymethyl groups on the CMS chip surface were first activated using an injection pulse of […] of an equimolar mix of N-ethyl-N-(dimethylaminopropyl) carbodiimide and N-hydroxysuccinimide (final concentration 0.05 M, mixed immediately before injection). After activation, FGFR4 was diluted to […] in 100 mM sodium acetate (pH 5.5) buffer and injected over the activated biosensor surface. […] The response was monitored as a function of time (sensorgram) at 25° C.

- Kd: 320 nM
- ka (25° C.): 1.2 × 10^3 1/MS
- kd (25° C.): 0.04 1/S
B1: FGF23: recombinant fibroblast growth factor 23 protein from R&D Systems (protein)
chain: YPDTSPLLGSNWGSLTHLYTATARTSYHLQIHRDGHVDGTPHQTIYSALMITSEDAGSVVITGAMTRRFLCMDLHGNIFGSLHFSPENCKFRQWTLENGYDVYLSQKHHYLVSLGRAKRIFQPGTNPPPFSQFLARRNEVPLLHFYTVRPRRHTRSAEDPPERDPLNVLKPRPRATPVPVSCSRELPSAEEGGPAASDPLGVLRRGRGDARGGAGGADRCRPFPRFV
